Assay results as given in the supplement of paper PMC10567573.

B1: ELF3 (parent)
chain: LSKEYWDCLEGKKSKHAPRGTHLW
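Note: lentivirally expressed fusions sorted by FACS into six bins by GFP to DsRed ratio, PSI derived from sequencing read proportions per bin multiplied by bin number.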

Variants of: B1
Experiment: protein stability index of a GFP-peptide fusion (GPS, HEK-293T) (PSI 1-6); higher = more stable
Conditions: c terminus: a fixed tail appended
Variant LSKEYWDCLEGKKSKMAPRGTHLW [H16M] has a protein stability index of 2.3. In the case of LSKEYWDCLEGKKSKIAPRGTHLW [H16I], the protein stability index is reported as 2.87. LSKEYWDCREGKKSKHAPRGTHLW [L9R] showed a protein stability index of 2.89. Variant LSKEYWDCQEGKKSKHAPRGTHLW [L9Q] has a protein stability index of 3.71. In the case of LSKEYWDCAEGKKSKHAPRGTHLW [L9A], the protein stability index is reported as 3.38. For LSKEYWDCSEGKKSKHAPRGTHLW [L9S], the protein stability index was 3.31. LSKEYWDCMEGKKSKHAPRGTHLW [L9M] gave a protein stability index of 3.42. LSKEYWDCNEGKKSKHAPRGTHLW [L9N] showed a protein stability index of 3.81. In the case of LSKEYWDCEEGKKSKHAPRGTHLW [L9E], the protein stability index is reported as 3.46. For LSKEYWDCKEGKKSKHAPRGTHLW [L9K], the protein stability index was 2.92. Work on LSKEYWDCPEGKKSKHAPRGTHLW [L9P] yielded a protein stability index of 3.44. LSKEYWDCTEGKKSKHAPRGTHLW [L9T] showed a protein stability index of 2.93. With LSKEYWDCYEGKKSKHAPRGTHLW [L9Y] the protein stability index was 2.84. LSKEYWDCDEGKKSKHAPRGTHLW [L9D] gave a protein stability index of 3.22. With LSKEYWDCWEGKKSKHAPRGTHLW [L9W] the protein stability index was 2.27. Variant LSKEYWDCHEGKKSKHAPRGTHLW [L9H] has a protein stability index of 3.26. Variant LSKEYWDCIEGKKSKHAPRGTHLW [L9I] has a protein stability index of 3.04. Variant LSKEYWDCCEGKKSKHAPRGTHLW [L9C] has a protein stability index of 3.3. Work on LSKEYWDCGEGKKSKHAPRGTHLW [L9G] yielded a protein stability index of 3.65. For LSKEYWDCFEGKKSKHAPRGTHLW [L9F], the protein stability index was 2.6. Work on LSKEYWDCVEGKKSKHAPRGTHLW [L9V] yielded a protein stability index of 3.83. Variant LSKEYWDCLEGKKNKHAPRGTHLW [S14N] has a protein stability index of 2.96. Variant LSKEYWDCLEGKKQKHAPRGTHLW [S14Q] has a protein stability index of 2.71. LSKEYWDCLEGKKAKHAPRGTHLW [S14A] showed a protein stability index of 2.81. In the case of LSKEYWDCLEGKKEKHAPRGTHLW [S14E], the protein stability index is reported as 3.16. LSKEYWDCLEGKKHKHAPRGTHLW [S14H] showed a protein stability index of 2.5. In the case of LSKEYWDCLEGKKYKHAPRGTHLW [S14Y], the protein stability index is reported as 3.48. Work on LSKEYWDCLEGKKTKHAPRGTHLW [S14T] yielded a protein stability index of 3.13. For LSKEYWDCLEGKKGKHAPRGTHLW [S14G], the protein stability index was 2.77. Variant LSKEYWDCLEGKKWKHAPRGTHLW [S14W] has a protein stability index of 3.31. In the case of LSKEYWDCLEGKKMKHAPRGTHLW [S14M], the protein stability index is reported as 2.24. Variant LSKEYWDCLEGKKFKHAPRGTHLW [S14F] has a protein stability index of 1.99. In the case of LSKEYWDCLEGKKKKHAPRGTHLW [S14K], the protein stability index is reported as 3.08. With LSKEYWDCLEGKKLKHAPRGTHLW [S14L] the protein stability index was 2.19. With LSKEYWDCLEGKKIKHAPRGTHLW [S14I] the protein stability index was 2.68. With LSKEYWDCLEGKKCKHAPRGTHLW [S14C] the protein stability index was 2.1. Work on LSKEYWDCLEGKKDKHAPRGTHLW [S14D] yielded a protein stability index of 4.18. Variant LSKEYWDCLEGKKPKHAPRGTHLW [S14P] has a protein stability index of 2.94. LSKEYWDCLEGKKVKHAPRGTHLW [S14V] gave a protein stability index of 2.94. LSKEYWDCLEGKKRKHAPRGTHLW [S14R] gave a protein stability index of 2.92. In the case of LSKEYWDCLEGKNSKHAPRGTHLW [K13N], the protein stability index is reported as 2.36. Work on LSKEYWDCLEGKLSKHAPRGTHLW [K13L] yielded a protein stability index of 2.64. LSKEYWDCLEGKMSKHAPRGTHLW [K13M] showed a protein stability index of 2.3. In the case of LSKEYWDCLEGKHSKHAPRGTHLW [K13H], the protein stability index is reported as 2.87. In the case of LSKEYWDCLEGKGSKHAPRGTHLW [K13G], the protein stability index is reported as 3.08. Work on LSKEYWDCLEGKVSKHAPRGTHLW [K13V] yielded a protein stability index of 2.32. LSKEYWDCLEGKRSKHAPRGTHLW [K13R] showed a protein stability index of 2.87. Variant LSKEYWDCLEGKESKHAPRGTHLW [K13E] has a protein stability index of 3.52. Variant LSKEYWDCLEGKWSKHAPRGTHLW [K13W] has a protein stability index of 2.92. Variant LSKEYWDCLEGKTSKHAPRGTHLW [K13T] has a protein stability index of 2.37. With LSKEYWDCLEGKYSKHAPRGTHLW [K13Y] the protein stability index was 2.82. For LSKEYWDCLEGKQSKHAPRGTHLW [K13Q], the protein stability index was 3.17. Work on LSKEYWDCLEGKPSKHAPRGTHLW [K13P] yielded a protein stability index of 2.47. LSKEYWDCLEGKCSKHAPRGTHLW [K13C] gave a protein stability index of 2.24. In the case of LSKEYWDCLEGKISKHAPRGTHLW [K13I], the protein stability index is reported as 2.22. With LSKEYWDCLEGKFSKHAPRGTHLW [K13F] the protein stability index was 2.74. In the case of LSKEYWDCLEGKDSKHAPRGTHLW [K13D], the protein stability index is reported as 3.24. Variant LSKEYWDCLEGKASKHAPRGTHLW [K13A] has a protein stability index of 2.76. Work on LSKEYWQCLEGKKSKHAPRGTHLW [D7Q] yielded a protein stability index of 3. Variant LSKEYWGCLEGKKSKHAPRGTHLW [D7G] has a protein stability index of 2.15. In the case of LSKEYWLCLEGKKSKHAPRGTHLW [D7L], the protein stability index is reported as 2.26. Work on LSKEYWRCLEGKKSKHAPRGTHLW [D7R] yielded a protein stability index of 1.65. In the case of LSKEYWMCLEGKKSKHAPRGTHLW [D7M], the protein stability index is reported as 2.6. For LSKEYWPCLEGKKSKHAPRGTHLW [D7P], the protein stability index was 2.04. With LSKEYWFCLEGKKSKHAPRGTHLW [D7F] the protein stability index was 1.83. Work on LSKEYWICLEGKKSKHAPRGTHLW [D7I] yielded a protein stability index of 2.05. In the case of LSKEYWWCLEGKKSKHAPRGTHLW [D7W], the protein stability index is reported as 1.89. LSKEYWHCLEGKKSKHAPRGTHLW [D7H] showed a protein stability index of 2.33. Variant LSKEYWKCLEGKKSKHAPRGTHLW [D7K] has a protein stability index of 2.41. In the case of LSKEYWYCLEGKKSKHAPRGTHLW [D7Y], the protein stability index is reported as 2.29. LSKEYWNCLEGKKSKHAPRGTHLW [D7N] gave a protein stability index of 2.96. In the case of LSKEYWVCLEGKKSKHAPRGTHLW [D7V], the protein stability index is reported as 2.44. Variant LSKEYWTCLEGKKSKHAPRGTHLW [D7T] has a protein stability index of 2.76. In the case of LSKEYWSCLEGKKSKHAPRGTHLW [D7S], the protein stability index is reported as 2.44. With LSKEYWECLEGKKSKHAPRGTHLW [D7E] the protein stability index was 2.77. LSKEYWDCLEGHKSKHAPRGTHLW [K12H] showed a protein stability index of 2.52. In the case of LSKEYWDCLEGYKSKHAPRGTHLW [K12Y], the protein stability index is reported as 1.88. Variant LSKEYWDCLEGEKSKHAPRGTHLW [K12E] has a protein stability index of 3.21. In the case of LSKEYWDCLEGNKSKHAPRGTHLW [K12N], the protein stability index is reported as 3.68. With LSKEYWDCLEGGKSKHAPRGTHLW [K12G] the protein stability index was 2.58. With LSKEYWDCLEGAKSKHAPRGTHLW [K12A] the protein stability index was 2.54. LSKEYWDCLEGDKSKHAPRGTHLW [K12D] showed a protein stability index of 3.4. Work on LSKEYWDCLEGPKSKHAPRGTHLW [K12P] yielded a protein stability index of 2.96. For LSKEYWDCLEGTKSKHAPRGTHLW [K12T], the protein stability index was 2.43. Work on LSKEYWDCLEGQKSKHAPRGTHLW [K12Q] yielded a protein stability index of 2.99. For LSKEYWDCLEGWKSKHAPRGTHLW [K12W], the protein stability index was 1.54. LSKEYWDCLEGRKSKHAPRGTHLW [K12R] gave a protein stability index of 2.35. LSKEYWDCLEGCKSKHAPRGTHLW [K12C] showed a protein stability index of 1.97. Work on LSKEYWDCLEGMKSKHAPRGTHLW [K12M] yielded a protein stability index of 2.53. For LSKEYWDCLEGLKSKHAPRGTHLW [K12L], the protein stability index was 2.06. Variant LSKEYWDCLEGIKSKHAPRGTHLW [K12I] has a protein stability index of 2.26. LSKEYWDCLEGVKSKHAPRGTHLW [K12V] gave a protein stability index of 2.23. Variant LSKEYWDCLEGSKSKHAPRGTHLW [K12S] has a protein stability index of 3.38. For LSKEYWDCLEGFKSKHAPRGTHLW [K12F], the protein stability index was 2.71.
